From patent US20120178908A1 (Novo Nordisk, published 2012)
Where a chain is given by its changes, count along the chain named.

T1: human fibrinogen (HCI-0150R, Haematologic Technologies) (human, UniProt P02671 20-629; P02675 31-491; P02679 27-437, limits assumed)
T1 construct: Chain composition is general knowledge
T1 sequence (looked up) 1: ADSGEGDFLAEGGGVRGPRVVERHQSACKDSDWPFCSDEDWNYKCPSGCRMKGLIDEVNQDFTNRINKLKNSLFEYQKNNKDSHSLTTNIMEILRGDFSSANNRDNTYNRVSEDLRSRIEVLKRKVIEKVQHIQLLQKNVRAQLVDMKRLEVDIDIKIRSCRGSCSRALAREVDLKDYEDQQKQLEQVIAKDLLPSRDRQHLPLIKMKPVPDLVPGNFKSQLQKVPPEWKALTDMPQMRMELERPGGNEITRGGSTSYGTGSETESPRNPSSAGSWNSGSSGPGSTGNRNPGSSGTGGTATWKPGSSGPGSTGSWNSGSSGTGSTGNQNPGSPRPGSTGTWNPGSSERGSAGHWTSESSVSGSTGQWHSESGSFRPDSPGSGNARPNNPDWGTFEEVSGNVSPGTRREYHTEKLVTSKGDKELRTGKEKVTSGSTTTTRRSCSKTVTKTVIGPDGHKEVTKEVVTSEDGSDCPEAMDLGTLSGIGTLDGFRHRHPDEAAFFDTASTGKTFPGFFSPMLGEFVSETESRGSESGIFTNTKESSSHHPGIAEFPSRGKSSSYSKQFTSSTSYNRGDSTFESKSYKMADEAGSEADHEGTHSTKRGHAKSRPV
T1 sequence (looked up) 2: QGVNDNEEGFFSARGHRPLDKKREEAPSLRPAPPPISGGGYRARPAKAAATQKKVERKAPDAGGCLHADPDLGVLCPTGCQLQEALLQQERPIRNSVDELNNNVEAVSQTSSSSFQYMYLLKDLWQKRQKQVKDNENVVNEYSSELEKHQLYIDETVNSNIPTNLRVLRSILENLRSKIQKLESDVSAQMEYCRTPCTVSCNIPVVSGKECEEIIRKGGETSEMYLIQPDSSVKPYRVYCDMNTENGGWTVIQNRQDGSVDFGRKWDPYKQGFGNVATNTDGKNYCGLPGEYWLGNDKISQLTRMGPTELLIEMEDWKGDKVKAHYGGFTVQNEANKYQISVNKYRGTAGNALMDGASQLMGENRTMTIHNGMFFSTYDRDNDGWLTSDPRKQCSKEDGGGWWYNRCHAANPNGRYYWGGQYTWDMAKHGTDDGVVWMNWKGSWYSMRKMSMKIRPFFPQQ
T1 sequence (looked up) 3: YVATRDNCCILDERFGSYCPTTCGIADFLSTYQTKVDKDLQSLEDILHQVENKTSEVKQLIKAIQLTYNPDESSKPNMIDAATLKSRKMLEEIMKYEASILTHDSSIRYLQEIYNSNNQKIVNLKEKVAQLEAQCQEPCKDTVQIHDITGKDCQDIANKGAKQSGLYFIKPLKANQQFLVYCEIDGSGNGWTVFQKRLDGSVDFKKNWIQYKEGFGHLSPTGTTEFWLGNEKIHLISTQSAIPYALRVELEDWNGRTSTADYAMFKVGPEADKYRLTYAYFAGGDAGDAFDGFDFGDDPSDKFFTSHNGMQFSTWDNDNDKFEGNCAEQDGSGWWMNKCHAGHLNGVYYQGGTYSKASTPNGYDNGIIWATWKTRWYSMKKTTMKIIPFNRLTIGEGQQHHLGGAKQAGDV

T2: hTLT-1 ECD-HPC4 F54A (human, UniProt Q86YW5 16-162)
T2 construct: As m27; also called Ala mutant 12
T2 chain: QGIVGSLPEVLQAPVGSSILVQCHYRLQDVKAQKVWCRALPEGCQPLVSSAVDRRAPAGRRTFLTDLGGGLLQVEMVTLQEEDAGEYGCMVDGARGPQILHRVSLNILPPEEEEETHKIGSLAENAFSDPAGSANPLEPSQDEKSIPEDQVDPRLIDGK

T3: hTLT-1 ECD-HPC4 M91A (human, UniProt Q86YW5 16-162)
T3 construct: As m27; also called Ala mutant 24
T3 chain: T2 chain with A39F, M76A

T4: hTLT-1 ECD-HPC4 R117A (human, UniProt Q86YW5 16-162)
T4 construct: As m27; also called Ala mutant 32
T4 chain: T2 chain with A39F, R102A

T5: hTLT-1 ECD-HPC4 S119A (human, UniProt Q86YW5 16-162)
T5 construct: As m27; also called Ala mutant 33
T5 chain: T2 chain with A39F, S104A

T6: TLT-1 receptor on the surface of activated human platelets (human, UniProt Q86YW5 16-311)
T6 sequence: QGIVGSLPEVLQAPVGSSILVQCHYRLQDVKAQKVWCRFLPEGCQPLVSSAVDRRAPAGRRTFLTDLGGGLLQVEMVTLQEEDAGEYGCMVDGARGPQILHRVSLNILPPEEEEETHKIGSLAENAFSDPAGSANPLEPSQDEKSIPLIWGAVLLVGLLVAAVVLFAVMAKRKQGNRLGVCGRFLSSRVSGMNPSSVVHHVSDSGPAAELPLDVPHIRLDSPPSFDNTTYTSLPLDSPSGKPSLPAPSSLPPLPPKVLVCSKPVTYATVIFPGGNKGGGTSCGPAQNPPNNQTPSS

B1: TLT1 (human TLT-1, reagent of the SPR studies, source NN) (receptor)
chain: QGIVGSLPEVLQAPVGSSILVQCHYRLQDVKAQKVWCRFLPEGCQPLVSSAVDRRAPAGRRTFLTDLGGGLLQVEMVTLQEEDAGEYGCMVDGARGPQILHRVSLNILPPEEEEETHKIGSLAENAFSDPAGSANPLEPSQDEKSIP
B2: mAb 0051 HC2; LC2 (antibody, V domains shown)
VH: QVQLEQSGAELVRPGVSVKISCKGSGYTFTDYSMHWVKQSHAKSLEWIGVISTYYGDVRYNQKFKGKATMTVDKSSSTAYMALARLTSEDSAIYYCARAPMITTGAWFAYWGQGTLVTVSA
VL: SIVMTQTPKFLLVSAGDRVTITCKASQSVSNDVAWYQQKPGQSPKLLINYASSRYTGIPDRFTGSGYGTDFTFTISTVQAEDLAVYFCQQDYSSPYTFGGGTKLEIER
notes: also called 0197-0000-0051
B3: Fab 0012-LC-HPC4; VH-CH1 (Fab)
heavy: EVKLLESGGGLVQPGGSLKLSCAASGFDFSRYWMTWVRQAPGKGLEWIGEINPDSSTINYTPSLKDKFIISRDNAKNTLYLQMSEVRSEDTALYYCASGVFTSWGQGTLVTVSAASTKGPSVFPLAPCSRSTSESTAALGCLVKDYFPEPVTVSWNSGALTSGVHTFPAVLQSSGLYSLSSVVTVPSSSLGTKTYTCNVDHKPSNTKVDKRVESK
light: DVVMTQTPLSLPVSLGDQASISCRSSQSLVHRNGNTYFHWCLQKPGQSPKLLIYKVSNRFSGVPDRFSGSGSGTDFTLKISRVEAEDLGVYFCSQSTHVPYTFGGGTKLEIKRTVAAPSVFIFPPSDEQLKSGTASVVCLLNNFYPREAKVQWKVDNALQSGNSQESVTEQDSKDSTYSLSSTLTLSKADYEKHKVYACEVTHQGLSSPVTKSFNRGECEDQVDPRLIDGK
notes: Anti-TLT-1 Fab without tissue factor; also called 0010; 0010 Fab

Key:
[1] = target: T1, human fibrinogen (HCI-0150R, …); assay: SPR (Biacore T100), TLT1 immobilised on CM5, fibrinogen as analyte
Protocol: (§1) Human TLT1 was immobilised to a level of approx 1000 RU on a CM5 chip (50 μg/ml diluted in Na-acetate, pH 4.0) using the standard procedure recommended by the supplier. Four-fold dilutions of human fibrinogen from 200 nM to 0.2 nM were tested for binding to the immobilized TLT1. Running and dilution buffer: 10 mM HEPES, 150 mM, 0.005% p20, pH 7.4. Regeneration was obtained by 10 mM Glycine, pH 1.7. Determination of kinetic and binding constants (kₒₙ, koff, KD) was obtained assuming a 1:1 interaction of TLT1 and fibrinogen using the Biacore T100 evaluation software.

[2] = target: T1, human fibrinogen (HCI-0150R, …); assay: SPR (Biacore T100), TLT1 immobilised on CM5, fibrinogen 200 nM to 0.2 nM as analyte
Protocol: as §1

[3] = target: B1; assay: SPR (Biacore), mAb immobilised directly on CM5, TLT1 as analyte
Protocol: The mAbs of interest were either immobilized directly to a CM5 chip or by capture via a human Fc capture mAb immobilized to a CM5 chip.
Direct capture: The TLT-1 mAbs were immobilised to a level of approx 500-1000 RU on a CM5 chip (50 μg/ml diluted in Na-acetate, pH 4.0) using the standard procedure recommended by the supplier. Two-fold dilutions of TLT1 from 200 nM to 0.2 nM were tested for binding to the mABs. Running and dilution buffer: 10 mM HEPES, 150 mM, 0.005% p20, pH 7.4. Regeneration was obtained by 10 mM Glycine, pH 1.7.

[4] = target: T2, hTLT-1 ECD-HPC4 F54A; assay: SPR (ProteOn), mAb captured by anti-hFc, 100 nM mutant, signal 10 s after injection normalised to captured mAb
Protocol: (§2) Each anti-body was diluted in 10 mM sodium acetate pH 5.0 to a concentration of […], and was immobilized to an individual flow cell at 30 μl/min for 240s. The antibodies were immobilized to flow cells A1-A6 (horizontal direction). After immobilization, the active sites on the flow cell were blocked with 1 M ethanolamine. The final immobilization level of capture antibody typically ranged from approximately 9,000 to 10,000 RU in one experiment. Capture of the anti-TLT1 antibodies 0197-0000-0023, 0197-0000-0051, 0197-0000-0061 and 0197-0000-0062 was conducted by diluting to […] into HBS-EP buffer (10 mM HEPES, 150 mM NaCl, 3 mM EDTA, 0.05% surfactant P20, pH 7.4) and injected at 30 μl/min for 60s in vertical direction, creating interspot reference points with only anti-human Fc antibodies. The final capture level of test antibodies typically ranged from approximately 200 to 300 RU in one experiment. Binding of wt or Ala mutant hTLT-1 ECD-HPC4 protein was conducted by injecting over parallel flow cells in horizontal direction to allow for comparative analyses of binding to different captured anti-TLT1 antibodies relative to binding to the interspot references. Each hTLT-1 ECD-HPC4 protein was diluted to 100 nM, based on the calculated average Mw, into HBS-EP buffer and injected at 30 μl/min for 240s. The GLM chip was regenerated after each injection cycle of analyte via one 18 s injection of 1 M Formic acid followed by a 18s injection of 50 mM NaOH at 100 μl/min. This regeneration step removed the anti-TLT1 antibody and any bound TLT1 from the immobilized capture antibody surface, and allowed for the subsequent binding of the next test sample pair.
(§3) Data analysis was performed using the ProteOn Manager™ Software. No significant non-specific binding to the interspot control surfaces was observed. Binding curves were processed by double referencing (subtraction of interspot control surface signals as well as blank buffer injections over captured anti-TLT1 antibodies). This allowed correction for instrument noise, bulk shift and drift during sample injections. Binding signal at 10 s after stop of analyte injection was normalized to level of captured anti-TLT1 antibody and presented as binding relative to wt hTLT-1 ECD-HPC4 protein.

[5] = target: T3, hTLT-1 ECD-HPC4 M91A; assay: as above
Protocol: as §2, §3

[6] = target: T4, hTLT-1 ECD-HPC4 R117A; assay: as above
Protocol: as §2, §3

[7] = target: T5, hTLT-1 ECD-HPC4 S119A; assay: as above
Protocol: as §2, §3

[8] = target: T6, TLT-1 receptor on the surface of …; assay: flow cytometry on activated human platelets, detection: anti HPC4 tag ab.

Q: With B1 as the binder, how does the Kd [1] read?
A: The Kd was 94 nM.

Q: What about the koff [1] of the same binder?
A: The koff was 0.000392 s⁻¹.

Q: What about the kon [2] of the same binder?
A: Its kon is 4170 M⁻¹ s⁻¹.

Q: Which results are given for B2?
A: Kd [3]: 19.3 nM; koff [3]: 0.00472 s⁻¹; kon [3]: 245000 M⁻¹ s⁻¹; binding relative to wt hTLT-1 ECD-HPC4 [4]: < 0.4 fraction of wt binding; binding relative to wt hTLT-1 ECD-HPC4 [5]: < 0.2 fraction of wt binding; binding relative to wt hTLT-1 ECD-HPC4 [6]: < 0.2 fraction of wt binding; binding relative to wt hTLT-1 ECD-HPC4 [7]: < 0.6 fraction of wt binding

Q: Does B3 bind [8]?
A: Result: binds
